Data on 21 molecules can be found in patent US20200317792A1 (INSMED, published 2020).

The target in the experiment is T1, recombinant, soluble his tagged human EGFR (Sino Biologicals) (human, UniProt P00533 25-645).
T1 construct: extracellular domain; also called human epidermal growth factor receptor; not shown: his tag
In words: BLI (ForteBio Octet Red), IgG on protein A tips, 100 nM soluble EGFR.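 Also: antibody binding to EGFR read out as on and off rates plus equilibrium affinity, calculated with the Octet instrument software.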

B1: CoDAH design C1 VH/C4 Vκ (antibody, V domains shown)
VH: QVQLQQSGPGLVKPSQTLSLTCTVSGFSLTNYGVHWVRQSPGKGLEWLGVIWSGGNTDYNTPFTSRLTISKDTSKNQVSLKLSSVTSNDTAVYYCARALTYYDYEFAYWGQGTLVTVSA
VL: DIVLTQSPVILSVSPGERVTFSCRASQSIGTNIHWYQQKPDQSPKLLIKYASESISGVPSRFSGSGSGTDFTLTINSVESEDIADYYCQQNNNWPTTFGQGTKLELKR
notes: Cross pair; Measured as full length IgG
For the molecule B1, the binding result is reported as “binds”.

B2: CoDAH design C4 VH/C1 Vκ (antibody, V domains shown)
VH: QVQLQQSGPGLVKPSQTLSLTCTVSGFSLTNYGVHWVRQSPGKGLEWLGVIWSGGNTDYNTPFTSRLTISKDNSKSQVFFKMNSLQSNDTAVYYCARALTYYDYEFAYWGQGTLVTVSA
VL: DIVLTQSPDFQSVTPKEKVTITCRASQSIGTNIHWYQQKPDQSPKLLIKYASESISGVPSRFSGSGSGTDFTLTINSVESEDIADYYCQQNNNWPTTFGAGTKLELKR
notes: as for B1
Take B2: the binding result is recorded as “binds”.

B3: CoDAH design C4 VH/C2 Vκ (antibody, V domains shown)
VH: QVQLQQSGPGLVKPSQTLSLTCTVSGFSLTNYGVHWVRQSPGKGLEWLGVIWSGGNTDYNTPFTSRLTISKDNSKSQVFFKMNSLQSNDTAVYYCARALTYYDYEFAYWGQGTLVTVSA
VL: DIVLTQSPVFLSVTPGEKVTITCRASQSIGTNIHWYQQKPDQSPKLLIKYASESISGVPSRFSGSGSGTDFTLTINSVESEDIADYYCQQNNNWPTTFGAGTKLELKR
notes: as for B1
As to B3, the binding result was “binds”.

B4: CoDAH design C3 VH/C2 Vκ (antibody, V domains shown)
VH: QVQLQQSGPGLVKPSETLSLTCTVSGFSLTNYGVHWVRQSPGKGLEWLGVIWSGGNTDYNTPFTSRLTISVDTSKNQVSLKLSSVTSNDTAVYYCARALTYYDYEFAYWGQGTLVTVSA
VL: DIVLTQSPVFLSVTPGEKVTITCRASQSIGTNIHWYQQKPDQSPKLLIKYASESISGVPSRFSGSGSGTDFTLTINSVESEDIADYYCQQNNNWPTTFGAGTKLELKR
notes: as for B1
As to B4, the binding result was “binds”.

B5: CoDAH design C4 VH/C5 Vκ (antibody, V domains shown)
VH: QVQLQQSGPGLVKPSQTLSLTCTVSGFSLTNYGVHWVRQSPGKGLEWLGVIWSGGNTDYNTPFTSRLTISKDNSKSQVFFKMNSLQSNDTAVYYCARALTYYDYEFAYWGQGTLVTVSA
VL: EIVLTQSPVILSVSPGERVTFSCRASQSIGTNIHWYQQKTDQSPRLLIKYASESISGIPSRFSGSGSGTDFTLTINSVESEDIADYYCQQNNNWPTTFGQGTKLELKR
notes: as for B1
As for B5, the binding result is “binds”.

B6: CoDAH design C3 VH/C3 Vκ (antibody, V domains shown)
VH: QVQLQQSGPGLVKPSETLSLTCTVSGFSLTNYGVHWVRQSPGKGLEWLGVIWSGGNTDYNTPFTSRLTISVDTSKNQVSLKLSSVTSNDTAVYYCARALTYYDYEFAYWGQGTLVTVSA
VL: DILLTQSPVILSVSPGERVTFSCRASQSIGTNIHWYQQKPDQSPKLLIKYASESISGVPSRFSGSGSGTDFTLTINSVESEDIADYYCQQNNNWPTTFGAGTKLELKR
notes: Pareto optimal design; Measured as full length IgG
Take B6: the binding result is listed as “binds”.

B7: CoDAH design C3 VH/C5 Vκ (antibody, V domains shown)
VH: QVQLQQSGPGLVKPSETLSLTCTVSGFSLTNYGVHWVRQSPGKGLEWLGVIWSGGNTDYNTPFTSRLTISVDTSKNQVSLKLSSVTSNDTAVYYCARALTYYDYEFAYWGQGTLVTVSA
VL: EIVLTQSPVILSVSPGERVTFSCRASQSIGTNIHWYQQKTDQSPRLLIKYASESISGIPSRFSGSGSGTDFTLTINSVESEDIADYYCQQNNNWPTTFGQGTKLELKR
notes: as for B1
With B7, the binding result is recorded as “binds”.

B8: CoDAH design C2 VH/C2 Vκ (antibody, V domains shown)
VH: QVQLQQSGPGLVKPSQTLSLTCTVSGFSLTNYGVHWVRQSPGKGLEWLGVIWSGGNTDYNTPFTSRLTISVDTSKNQVSLKLSSVTSNDTAVYYCARALTYYDYEFAYWGQGTLVTVSA
VL: DIVLTQSPVFLSVTPGEKVTITCRASQSIGTNIHWYQQKPDQSPKLLIKYASESISGVPSRFSGSGSGTDFTLTINSVESEDIADYYCQQNNNWPTTFGAGTKLELKR
notes: as for B6
In the case of B8, the binding result is reported as “binds”.

B9: CoDAH design C4 VH/C3 Vκ (antibody, V domains shown)
VH: QVQLQQSGPGLVKPSQTLSLTCTVSGFSLTNYGVHWVRQSPGKGLEWLGVIWSGGNTDYNTPFTSRLTISKDNSKSQVFFKMNSLQSNDTAVYYCARALTYYDYEFAYWGQGTLVTVSA
VL: DILLTQSPVILSVSPGERVTFSCRASQSIGTNIHWYQQKPDQSPKLLIKYASESISGVPSRFSGSGSGTDFTLTINSVESEDIADYYCQQNNNWPTTFGAGTKLELKR
notes: as for B1
Consider B9, for which the binding result is recorded as “binds”.

B10: CoDAH design C2 VH/C5 Vκ (antibody, V domains shown)
VH: QVQLQQSGPGLVKPSQTLSLTCTVSGFSLTNYGVHWVRQSPGKGLEWLGVIWSGGNTDYNTPFTSRLTISVDTSKNQVSLKLSSVTSNDTAVYYCARALTYYDYEFAYWGQGTLVTVSA
VL: EIVLTQSPVILSVSPGERVTFSCRASQSIGTNIHWYQQKTDQSPRLLIKYASESISGIPSRFSGSGSGTDFTLTINSVESEDIADYYCQQNNNWPTTFGQGTKLELKR
notes: as for B1
In the case of B10, the binding result was “binds”.

B11: CoDAH design C2 VH/C3 Vκ (antibody, V domains shown)
VH: QVQLQQSGPGLVKPSQTLSLTCTVSGFSLTNYGVHWVRQSPGKGLEWLGVIWSGGNTDYNTPFTSRLTISVDTSKNQVSLKLSSVTSNDTAVYYCARALTYYDYEFAYWGQGTLVTVSA
VL: DILLTQSPVILSVSPGERVTFSCRASQSIGTNIHWYQQKPDQSPKLLIKYASESISGVPSRFSGSGSGTDFTLTINSVESEDIADYYCQQNNNWPTTFGAGTKLELKR
notes: Cross pair; Measured as full length IgG; also called C3 Vκ/C2 VH
As for B11, the binding result is listed as “binds”.

B12: CoDAH design C1 VH/C2 Vκ (antibody, V domains shown)
VH: QVQLQQSGPGLVKPSQTLSLTCTVSGFSLTNYGVHWVRQSPGKGLEWLGVIWSGGNTDYNTPFTSRLTISKDTSKNQVSLKLSSVTSNDTAVYYCARALTYYDYEFAYWGQGTLVTVSA
VL: DIVLTQSPVFLSVTPGEKVTITCRASQSIGTNIHWYQQKPDQSPKLLIKYASESISGVPSRFSGSGSGTDFTLTINSVESEDIADYYCQQNNNWPTTFGAGTKLELKR
notes: as for B1
For the molecule B12, the binding result was “binds”.

B13: CoDAH design C1 VH/C3 Vκ (antibody, V domains shown)
VH: QVQLQQSGPGLVKPSQTLSLTCTVSGFSLTNYGVHWVRQSPGKGLEWLGVIWSGGNTDYNTPFTSRLTISKDTSKNQVSLKLSSVTSNDTAVYYCARALTYYDYEFAYWGQGTLVTVSA
VL: DILLTQSPVILSVSPGERVTFSCRASQSIGTNIHWYQQKPDQSPKLLIKYASESISGVPSRFSGSGSGTDFTLTINSVESEDIADYYCQQNNNWPTTFGAGTKLELKR
notes: as for B1
Regarding B13, the binding result is listed as “binds”.

B14: CoDAH design C1 VH/C5 Vκ (antibody, V domains shown)
VH: QVQLQQSGPGLVKPSQTLSLTCTVSGFSLTNYGVHWVRQSPGKGLEWLGVIWSGGNTDYNTPFTSRLTISKDTSKNQVSLKLSSVTSNDTAVYYCARALTYYDYEFAYWGQGTLVTVSA
VL: EIVLTQSPVILSVSPGERVTFSCRASQSIGTNIHWYQQKTDQSPRLLIKYASESISGIPSRFSGSGSGTDFTLTINSVESEDIADYYCQQNNNWPTTFGQGTKLELKR
notes: as for B1
On to B14, for which the binding result is on record as “binds”.

B15: CoDAH design C2 VH/C4 Vκ (antibody, V domains shown)
VH: QVQLQQSGPGLVKPSQTLSLTCTVSGFSLTNYGVHWVRQSPGKGLEWLGVIWSGGNTDYNTPFTSRLTISVDTSKNQVSLKLSSVTSNDTAVYYCARALTYYDYEFAYWGQGTLVTVSA
VL: DIVLTQSPVILSVSPGERVTFSCRASQSIGTNIHWYQQKPDQSPKLLIKYASESISGVPSRFSGSGSGTDFTLTINSVESEDIADYYCQQNNNWPTTFGQGTKLELKR
notes: as for B1
Regarding B15, the binding result is reported as “binds”.

B16: CoDAH design C1 VH/C1 Vκ (antibody, V domains shown)
VH: QVQLQQSGPGLVKPSQTLSLTCTVSGFSLTNYGVHWVRQSPGKGLEWLGVIWSGGNTDYNTPFTSRLTISKDTSKNQVSLKLSSVTSNDTAVYYCARALTYYDYEFAYWGQGTLVTVSA
VL: DIVLTQSPDFQSVTPKEKVTITCRASQSIGTNIHWYQQKPDQSPKLLIKYASESISGVPSRFSGSGSGTDFTLTINSVESEDIADYYCQQNNNWPTTFGAGTKLELKR
notes: as for B6
With B16, the binding result is given as “binds”.

B17: CoDAH design C3 VH/C4 Vκ (antibody, V domains shown)
VH: QVQLQQSGPGLVKPSETLSLTCTVSGFSLTNYGVHWVRQSPGKGLEWLGVIWSGGNTDYNTPFTSRLTISVDTSKNQVSLKLSSVTSNDTAVYYCARALTYYDYEFAYWGQGTLVTVSA
VL: DIVLTQSPVILSVSPGERVTFSCRASQSIGTNIHWYQQKPDQSPKLLIKYASESISGVPSRFSGSGSGTDFTLTINSVESEDIADYYCQQNNNWPTTFGQGTKLELKR
notes: as for B1
As to B17, the binding result is recorded as “binds”.

B18: CoDAH design C4 VH/C4 Vκ (antibody, V domains shown)
VH: QVQLQQSGPGLVKPSQTLSLTCTVSGFSLTNYGVHWVRQSPGKGLEWLGVIWSGGNTDYNTPFTSRLTISKDNSKSQVFFKMNSLQSNDTAVYYCARALTYYDYEFAYWGQGTLVTVSA
VL: DIVLTQSPVILSVSPGERVTFSCRASQSIGTNIHWYQQKPDQSPKLLIKYASESISGVPSRFSGSGSGTDFTLTINSVESEDIADYYCQQNNNWPTTFGQGTKLELKR
notes: as for B6
Turning to B18, the binding result is on record as “binds”.

B19: CoDAH design C5 VH/C4 Vκ (antibody, V domains shown)
VH: QVQLQQSGPGLVKPSETLSITCTVSGFSLTNYGVHWVRQSPGKGLEWLGVIWSGGNTDYNTPFTSRLTINKDNSKSQVFFKMNSLQSNDTAVYYCARALTYYDYEFAYWGQGTLVTVSA
VL: DIVLTQSPVILSVSPGERVTFSCRASQSIGTNIHWYQQKPDQSPKLLIKYASESISGVPSRFSGSGSGTDFTLTINSVESEDIADYYCQQNNNWPTTFGQGTKLELKR
notes: as for B1
On to B19, for which the binding result was “binds”.

B20: CoDAH design C3 VH/C1 Vκ (antibody, V domains shown)
VH: QVQLQQSGPGLVKPSETLSLTCTVSGFSLTNYGVHWVRQSPGKGLEWLGVIWSGGNTDYNTPFTSRLTISVDTSKNQVSLKLSSVTSNDTAVYYCARALTYYDYEFAYWGQGTLVTVSA
VL: DIVLTQSPDFQSVTPKEKVTITCRASQSIGTNIHWYQQKPDQSPKLLIKYASESISGVPSRFSGSGSGTDFTLTINSVESEDIADYYCQQNNNWPTTFGAGTKLELKR
notes: as for B1
B20: the binding result is recorded as “binds”.

B21: CoDAH design C2 VH/C1 Vκ (antibody, V domains shown)
VH: QVQLQQSGPGLVKPSQTLSLTCTVSGFSLTNYGVHWVRQSPGKGLEWLGVIWSGGNTDYNTPFTSRLTISVDTSKNQVSLKLSSVTSNDTAVYYCARALTYYDYEFAYWGQGTLVTVSA
VL: DIVLTQSPDFQSVTPKEKVTITCRASQSIGTNIHWYQQKPDQSPKLLIKYASESISGVPSRFSGSGSGTDFTLTINSVESEDIADYYCQQNNNWPTTFGAGTKLELKR
notes: as for B1
Take B21: the binding result was “binds”.
